Laboratory results taken from patent US20050222390A1 (IMMATICS BIOTECHNOLOGIES, published 2005).

B1: SVASTITGV (adipose differentiation-related protein 129-137) (peptide)
peptide: SVASTITGV
notes: Also synthesized (Fmoc) for tetramers and pulsing; also called adipophilin-peptide; adipophilin fragment
B2: ALLNIKVKL (keratin 18 365-373) (peptide)
peptide: ALLNIKVKL
notes: Found in tumors of both patients RCC01 and RCC13; also called keratin 18 peptide
B3: YVDPVITSI (met proto-oncogen 654-662) (peptide)
peptide: YVDPVITSI
notes: Found in tumors of both patients RCC01 and RCC13; also synthesized (Fmoc) for tetramers and pulsing; also called c-Met-peptide; c-Met-protooncogene-fragment

What follows are binders tested against T1, recombinant HLA-A*0201-molecules (human) (assay: in vitro folding of HLA-A*0201 with peptide, gel filtration).
T1 construct: Folded in vitro with the peptides, purified by gel filtration

Row | binding result | Binder
1 | binds | B1
2 | binds | B2
3 | binds | B3
